In the supplement of paper PMC9170038:

Tested on: MS2 coat protein
Assay: apparent KD of MS2 coat protein; designed switch direction (-1 OFF switch, 1 ON switch): -1; higher = weaker reporter binding
Procedure, shortened: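 Stalled E. coli RNA polymerase transcribed designed RNA switches on Illumina chips, which were then titrated with SNAP-549-labelled MS2 coat protein, doubling from 0.7 or 1.5 nM to 3 µM. Steps lasted from 0.8–1.5 h at the lowest concentration to 10–20 min at the highest. The apparent KD is each design's median over clusters of curve-fitted normalised fluorescence.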

[1] = input ligand: microRNA oligo, concentration not stated
[2] = Eterna round: R95, input ligand: FMN 200 uM
[3] = Eterna round: R95, input ligand: microRNA oligo, concentration not stated
[4] = Eterna round: R95, input ligand: none

Row | Sequence | apparent KD of MS2 coat protein (input ligand: FMN 200 uM) [nM] | apparent KD of MS2 coat protein [1] [nM] | apparent KD of MS2 coat protein (input ligand: none) [nM] | apparent KD of MS2 coat protein [2] [nM] | apparent KD of MS2 coat protein [3] [nM] | apparent KD of MS2 coat protein [4] [nM]
1 | AGGAGGAGUUCAGGAUAUUCGACAUGAGGAUCACCCAUGUGGGUAAUAUAUAGUAAAGAGAUAGAGAAGAAGGGAAGGGAGGAG [Exclusion NG2] (Eterna round: R96, puzzle: Exclusion NG 2) | 42.5 | 23.5 | 36 |  |  | 
2 | CUGAACCCGGUAGGAUAUAUUGUGGGCAAGCAUGGAACGACAUGAGGAUCACCCAUGUAAUUUAGGUAGAAGGGCCAAAAGAUU [Excl-NG2-LRO09] (Eterna round: R96, puzzle: Exclusion NG 2) | 34.6 | 28.9 | 53.9 |  |  | 
3 | AGGUGCCUCUGGAAACAUGAGGAUCACCCAUGUUGAGUUAGCGAGGAUAUCGGUAACCAUUGUUAUGAGAAGGCGCAAACCAGA [Ex NG3 #38] (Eterna round: R96, puzzle: Exclusion NG 3) | 60.7 | 19.6 | 27.6 |  |  | 
4 | CUAAACGCAGGAUAUACAUGAGGAUCACCCAUGUUUGGCCAGUAAACAAGUCGUCUUAGUAGAAGGGCGUUUAG [Eternabot (Original) Solution 42] (Eterna round: R97, puzzle: Exclusion 3) | 544 |  | 40.1 |  |  | 
5 | CUAUUCCGAGGAUAUACAUGAGGAUCACCCAUGUCGGGCCUCUGCGUUUAGCGCGAAAGUAGAAGGUGGGUUUC [JL Riri mod 9] (Eterna round: R96, puzzle: Exclusion 3) | 35.5 | 26.8 | 32 |  |  | 
6 | GAUUAUGCGAGCUUUAGGGACAUGAGGAUCACCCAUGUUCGUCUUAUUAAUCUAGGUACGCUAACAUACCUAAAUCU [JMF 39] (puzzle: Sensor v3, turn-off variant 1) |  |  |  | 20.3 | 34.3 | 20.6
7 | CAUGAUUGACGAGGAUAUUGUUCUACAUCACGACGAGAAGGCGUCUGUCACAUGAGGAUCACCCAUGUGAGACUGGUGAAUGAG [Ex NG1 #81] (Eterna round: R96, puzzle: Exclusion NG 1) | 36.4 | 17.1 | 20.4 |  |  | 
8 | GUAUAACUACACGGGCUCAACAUGAGGAUCACCCAUGUCACAUACGCAAGCUUUUUGCUUGUCUUAUCUGUCCGUGA [Quleorraa] (puzzle: Sensor v3, turn-off variant 1) |  |  |  | 12.3 | 11.9 | 10.7
9 | AGAUCACAUGAGGAUCACCCAUGUCAGGAUAUCGUCACUGGAGCUUCGGCUCCAGUGACGAGAAGGGACAUAAU [E1/2-A1] (Eterna round: R97, puzzle: Exclusion 1) | 161 |  | 554 |  |  | 
10 | GGUUGGCGAGGAUAUACAUGAGGAUCACCCAUGUGAGAGAAAAAAGUGAGGACGAAAAGUAGAAGGCGCUGACG [salish99_ex3_r3_032] (puzzle: Exclusion 3) |  |  |  | 223 | 69.1 | 61.6
11 | GCCUGAGCAGGAUAUUCAAUAAUUCACAUGAGGAUCACCCAUGUCCAGCGAAAGCUAGGAGGAGAAGGGCUCAGGC [Mat - Exclusion 5 - Eli mod - D86] (puzzle: Exclusion 5) |  |  |  | 18.3 | 16.5 | 17.8
12 | AGGACAUGAGGAUCACCCAUGUAGUGAGGUGUAUCCGAAGACGAGGAUAUACAGAGGAAAUAUCUGUAGAAGGUGUAAUAAAAU [Istediso] (Eterna round: R96, puzzle: Exclusion NG 3) | 725 | 247 | 299 |  |  | 
13 | GCCUAACAUGAGGAUCACCCAUGUCAGGAUAUCCAUAAACACCGGGAUGUACUGGACGGGAGAAGGGACAGGGC [Escelazari] (Eterna round: R97, puzzle: Exclusion 1) | 53.5 |  | 51.4 |  |  | 
14 | AGGUCACAUGAGGAUCACCCAUGUGAGGAUAUUUACUCAAGAGCUUCGGCUCUCAAGUGAAGAAGGCGCAAUGA [EX1 #53] (Eterna round: R97, puzzle: Exclusion 1) | 34.6 |  | 32.8 |  |  | 
15 | AGUUGGCGAGGAUAUACAUGAGGAUCACCCAUGUGAAAUUAAAGUGAGUAAAUGAAAAGUAGAAGGCGCUGACA [Mod of Mat 21 - Jieux - Exclusion 3] (Eterna round: R97, puzzle: Exclusion 3) | 259 |  | 40.3 |  |  | 
